# Reference: the DeepSol protein solubility set
# Test: soluble on expression in E. coli; label from the status in PepcDB or PDB records
row,Sequence,soluble on expression in E. coli
1,MQHYLHIRPAPSDNLPLVDLIEHPDPIFDPKEKDLNETLLRSLLGGHYDPGFMATSPPEDRPGGGGGAAGGAEDLAELDQLLRQRPSGAMPSEIKGLEFSEGLAQGKKQRLSKKLRRKLQMWLWSQTFCPVLYAWNDLGSRFWPRYVKVGSCFSKRSCSVPEGMVCKPSKSVHLTVLRWRCQRRGGQRCGWIPIQYPIISECKCSC,soluble
2,NKDNPYIKPDDPRPVVLFCSTFSPSLTCAPEVFEQIKALSQKSQWRWLVQFHPKMKPSIVEQYKTLENENLQFVETDNVIPLLQAGDVMLCDTSSILLMFLMQRKPVVTFKNQSPKAHLIDINRVEEIEPAITRALSRTDDLMAHIHDYCNQIHPTGDGQSSQRVLAATDA,not soluble
3,METKPYLIALDLDGTLLKDDKTISENTLHTIQRLKDDGHYVCISTGRPYRSSSMYYQQMELTTPIVNFNGAFVHHPQDDSWGRYHTSLPLDVVKQLVDISESYNVHNVLAEVIDDVYFHYHDEHLIDAFNMNTTNVTVGDLRENLGEDVTSVLIHAKEEDVPAIRSYLSDVHAEVIDHRRWAAPWHVIEIIKSGMNKAVGLQKISDYYGVPRERIIAFGDEDNDLEMLEFAGCGVAMGNGIDAVKQIANRTTATNEEDGVARFLKEYFSL,soluble
4,MGHHHHHHSHMNSIVNGLYTFMSTTVVPAVTEQAANLVGGASALAEGATQALTQISQTALEWGSGSEDATASSEVFSWEQQGAAAASSDLQEDKKETTEDVHQEAIGASSPNTSIEWEVIHENPDETGPIRHNQFEMVQNNYEWMKNSK,not soluble
5,MGNQLDRITHLNYSELPTGDPSGIEKDELRVGVAYFFSDEEEELDDRSQSDSFKDNNSPSKDGPVARNEIEYTAFCCQECIYSKLRENEDLNVYSVKTLLTMCKPGDLLELVANAQPPHWAIFEGEDQVIHLYKGEIRKDSLFEISCGRQARIVNNRYRYRPLPADLVMQNASGHVGLSSGEICWTNSESFAAWCRFGKREFKAGGEVHSVEQRYFLKVHLSESTAHTLMFRSLEEMIRERRRVDASGILKELSLVTGKE,not soluble
6,FEHVLVFAPTGSGKTRSIGIPNLFNYPYSVVCNDVKLTLFRTTSGYRERVLGHRCFCWAPADENRITHCYNPLSLISEDKIQRLTDIQRIAHILMPDNKKSDPIWQQASRKLFKVAVLYLLDTPERPTTLGEINRLVKQAGFDDWLASVLEETNHLDPEFYRNGYSYLNNHEKTRSSILETFSGYFELFDDPTIDAATARSDFDLRQLRREKITIYIGFTDDDMERLSPLLTLFWQQLISVMIKNIPDPVDEPYPLLCLIDEFSSLGRIERLRRSLKLLREYRVRCVLIMQYIAQTYEQYTHDEAKAFTNIKTKIAFATEDIFDAEYVSKLLGTRTVKVSAGSTSTQTQGYSESKSYNYQAIPLLRPDEVMRLPEDQTLIMRTGHAPVKAEQMVWY,not soluble
7,MGHHHHHHSHMSWWDYGYQIAGMANRTTLVDNNTWNNSHIALVGKAMSSNETAAYKIMRTLDVDYVLVIFGGVIGYSGDDINKFLWMVRIAEGEHPKDIRESDYFTPQGEFRVDKAGSPTLLNCLMYKMSYYRFGEMQLDFRTPPGFDRTRNAEIGNKDIKFKHLEEAFTSEHWLVRIYKVKAPDNRETLDHKPRVTNIFPKQKYLSKKTTKRKRGYIKNKLVFKKGKKIFKKTV,not soluble
8,MEDKNSVIVFKNVSFQYQSDASFTLKDVSFNIPKGQWTSIVGHNGSGKSTIAKLMIGIEKVKSGEIFYNNQAITDDNFEKLRKDIGIVFQNPDNQFVGSIVKYDVAFGLENHAVPYDEMHRRVSEALKQVDMLERADYEPNALSGGQKQRVAIASVLALNPSVIILDEATSMLDPDARQNLLDLVRKVKSEHNITIISITHDLSEAMEADHVIVMNKGTVYKEGTATEIFDNAEELTRIGLDLPFPIKINQMLGHQTSFLTYEGLVDQL,not soluble
9,MSAAHKNLLAVWAKEPKDLVAVEKALNELTKVLSASSDLNDKQSALASKDLYEISVLLAILKHDFETFDDYINQMHTYYTMAPENSENKHLMTGLHLMFLLAANRLSDFHMLLEQIPQKEQTSNAYISTPVRIEQSLMEGAYNKVVLTEKNIPSPFYTIFIRIMLDTIRREIATSIEKSFKVLTAKDATVMLLFDNDEQMKKFGQERKWHLDGERYVFEIEVAQEKPVNLDTVRVATQTLFYAKQLEQIV,not soluble
10,MGSDKIHHHHHHMKITNFEQTGLCEIEGILSIENTENIEVSELREILKCANVSFVLEGINRLQSTLICELKASYVQQSQRYVTLKENSFDLPDLRHEDELKAKELLRKAFELYEEMSRLKEGQFKGRPKAENYLYGIPIEDARYILPLACKTNISMAMNGEKLIDFFYLLNDRHYSEIFSDLKKLVLSKLPEKLSLFLSKLKSNYNRKLIENFYKSAFDKISECDNIVLLNSFEDLDLKVGLGAITSTHDKTPSEVMELWGDNATEKAKGVSERVLGYGHESIAEQARTTFGMMCSMVTYHQQIRHRLSENHREALFNIIQDEKREVVVPSTVKESEFYNRFVELTHEFKKFRKYVLKEYGEEKSLNFLLNCDRIKLVISTNARIDCQMLADRICFNAQWEIRELSTKKLEKLRKLSQVLYVKALPSCVFGKCKEGKFTCGKQMIMKNKFA,not soluble
11,MRMEAGEAAPPAGAGGRATGGWGKWVRLNVGGTVFLTTRQTLCREQKSFLSRLCQGEELQSDRDETGAYLIDRDPTYFGPILNFLRHGKLVLDKDMAEEGVLEEAEFYNIGPLIRIIKDRMEEKDYTVTQVPPKHVYRVLQCQEEELTQMVSTMSDGWRFEQLVNIGSSYNYGSEDQAEFLCVVSKELHSTPNGLSSESSRKTKSTEEQLEEQQQQEEEVEEVEVEQVQVEADAQEKGAANPQEDDC,soluble
12,MAHHHHHHMLQWVVKEVEGPFGNIATIHWAVPEGQDDGESSDNTAESQKLHHKVGQGGKVQPELQHLLEDAEDQLGAVLWNSNSVAMGHLQKHVLQNHDKACHVVELGAGVGCLGIGLAMAGARVVITDMKELVPLMEKNIELNKERILSRSNGKGSCVAMTWRWGPPPLVKQKHNAKRVKINNARQHSSNADVPSAQNERGRSPYLLPSPAFVEMQRLLDHVDLVVLCDALYGNPKSWPQLLYTLSEILAANPRCEVINFCEQRVDDVEGDFLNLLQQENAKLPPPANSAVGPEGNETMEEALLRMRGSYKWSTSTEVVGEGPSDLGMPVRVTRISWVHRSGKWGTGASTASRDVVVDGADLGR,not soluble
13,MTAEPMSESKLNTLVQKLHDFLAHSSEESEETSSPPRLAMNQNTDKISGSGSNSDMMENSKEEGTSSSEKSKSSGSSRSKRKPSIVTKYVESDDEKPLDDETVNEDASNENSENDITMQSLPKEDGLHGIVSCTACGQQVNHFQKDSIYRHPSLQVLICKNCFKYYMSDDISRDSDGMDEQCRWCAEGGNLICCDFCHNAFCKKCILRNLGRKELSTIMDENNQWYCYICHPEPLLDLVTACNSVFENLEQLLQQNKKKIKVDSEKSNKVYEHTSRFSPKKTSSNCNGEEKKLDDSCSGSVTYSYSALIVPKEMIKKAKKLIETTANMNSSYVKFLKQATDNSEISSATKLRQLKAFKSVLADIKKAHLALEEDLNSEFRAMDAVNKEKNTKEHKVIDAKFETKARKGEKPCALEKKDISKSEAKLSRKQVDSEHMHQNVPTEEQRTNKSTGGEHKKSDRKEEPQYEPANTSEDLDMDIVSVPSSVPEDIFENLETAMEVQSSVDHQGDGSSGTEQEVESSSVKLNISSKDNRGGIKSKTTAKVTKELYVKLTPVSLSNSPIKGADCQEVPQDKDGYKSCGLNPKLEKCGLGQENSDNEHLVENEVSLLLEESDLRRSPRVKTTPLRRPTETNPVTSNSDEECNETVKEKQKLSVPVRKKDKRNSSDSAIDNPKPNKLPKSKQSETVDQNSDSDEMLAILKEVSRMSHSSSSDTDINEIHTNHKTLYDLKTQAGKDDKGKRKRKSSTSGSDFDTKKGKSAKSSIISKKKRQTQSESSNYDSELEKEIKSMSKIGAARTTKKRIPNTKDFDSSEDEKHSKKGMDNQGHKNLKTSQEGSSDDAERKQERETFSSAEGTVDKDTTIMELRDRLPKKQQASASTDGVDKLSGKEESFTSLEVRKVAETKEKSKHLKTKTCKKVQDGLSDIAEKFLKKDQSDETSEDDKKQSKKGTEEKKKPSDFKKKVIKMEQQYESSSDGTEKLPEREEICHFPKGIKQIKNGTTDGEKKKKK,soluble
14,MGSDKIHHHHHHMWTILCDKDSGGVLLRKGVSTSIIRSNPDLLEALPKAELYELGFFKAEDLEKVLRFFHDKNFGIHAPFIYRYRYHHPNPTSLNEEEREDTFSVNKKCAELARKIGAEYMIIHFPNALQKENWLSVYREVEREFSELAGVISVRVENVYGNDHFHSAEDYRTFLENTGCKMCVDIGHLLLDAEVYGFSPIEFIEKLSDFVEEFHIYYADFETYKKCHHAPWGESKEFLEVLEFIKDFDADFVLEPTPECEEGLEKLFEYWRDL,not soluble
15,SLALPADPIQRCLDIRRLVDITSRQKMAAKEPGVLRFKFHKISASELPLDNPVGNMDEVIQALNNQIENCNNSYGEFQTVTIAGHQFKRQEWCLNTNKKMLTLAKAAHGDFKKFLSSIKTEFDWYKSDGWPENHAGFKKGEFQFTAYYAPAAVEARSERGGAFLYPLYSNPGVVSVALESKKYNLKTPLCGVDPLSKVMRGFCLKNADGTYSVAPDREEIEHGALNPKYIIGYLKDPNDSAFLMLQGSGSLLLDGKLFHINYDGANGRPRTMLGRIVQCAQDPTCGGNLDTMERCAKDPKCHDEAKLRCNVSKKIRQSAASEKLIRQYLNNLTPDKADNLRNRDQSYVFFAKEDGGPYGSENISLTPHV,not soluble
16,MTNYVKKVSIEDFGCQFLHTAHWNNRLRTTGGRFFPNDRHLDFNPKIYREFGIDIFRKIVRHELCHYHLYIQGKGYQHRDKAFKELLEKVDGLRYTPRVTAVKVNYHHYSCQSCGQVYRRRRRVNLRKFACGYCHGRLIESFLEHHHHHH,not soluble
17,MGSDKIHHHHHHMNINQLKTFIVLADCLSVTETSKRLFCTQPAVSIKIRKLEETLNTVLFERINNRLYLTEQGKIFYSYAEQIISTLEMSVEHLHQYDDPNYGKIIIGASHFVGVYLLPQVIAEYRKLSPNVELRLEILSSQQLIQGLENHSIDFIIMSDQIYFDPQKYDVNRFLSDELILIVPPDHVLATYESCHFEQLCDELFIIKPKNSQTRKFLLQQFSKDQISLLKFMEINSLEGIKRCVMNGLGVSIISRFSVENELKMGMLKAVELDSFQFKRGINYIYHKEKCLSSAIGRFIGLLNILK,not soluble
18,MSGHFNYIVVGRGMMGAAAARHLAETVDGVALIGPGEPADIKSHQGVFASHYDEARITRTIDGDPDWALLANRSIARYADIAARSGVEFYAPVGCLMVGPERGGANPFVDDVLRAAARLGVSTELLGDQSLKSRFPYFSFEPGCEGVFERDNAGYVNPRALVKAQAILAEKAGVTLIDDIVVSTREEDGRASVQTASGAVYTAERVLVAAGGFSITRDLLPQPVGLDVYARTVAFFEIDEGDLGQYAGMPSLIYEPHDTTKHIYLLPPVRYPDGKFYLKIGGDPDDKRVGSDPEIREWFRSGGRESVRDHLSEIVGTLVPSVDHSRVSMAACVVSKTKSGYPAIGFTASPRIAVLTGGNGTAAKSSDEIGRLGAALLRDGKIADDAFSTDFKPEFL,not soluble
19,HHHHHHTNEAYLAHERRELEAKRNQLRDEVDRTKTHMQDEAANDPNWFDITAQLWEFSQELRNRDREEKLIKKIEQTLKKVENED,soluble
20,MAAPVDLELKKAFAELQAKMVDTQQKVKLADLQIEQLSRVKKHANLTHGEITSLPESTRMFEGAGRMFILQSKGEISNQLLEKQKTADDKIKELEQKKTYLERSVKDAEDNIREMLMSRRAQ,not soluble
